According to patent publication US20220175942A1:
Changes are numbered by the printed parent chain.

B1: P974_AMBCA, A0A023FDY8 22-118 (protein)
chain: ENTQQEEQDYDYGTDTCPFPVLANKTNKAKFVGCHQKCNGGDQKLTDGTACYVVERKVWDRMTPMLWYECPLGECKNGVCEDLRKKEDCRKGNGEEK
B2: P546_AMBCA, A0A023FBW7 22-118 (protein)
chain: B1 chain with Q8E, E69S, D88E

Tests used:
[1] = target: T1, CCL5_HUMAN (human), P13501; assay: BLI; conditions: other; chains chain; remark: other sources report otherwise
T1 chain: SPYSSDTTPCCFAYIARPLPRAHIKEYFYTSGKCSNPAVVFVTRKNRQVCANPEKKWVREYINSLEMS

[2] = target: T2, CX3CL1_HUMAN (human), P78423; assay: microscale thermophoresis, AlexaFluor 647 labelled chemokine; conditions: remark: other sources report otherwise
T2 chain: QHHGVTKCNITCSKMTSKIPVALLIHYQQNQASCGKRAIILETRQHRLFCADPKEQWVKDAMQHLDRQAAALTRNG

[3] = target: CXCL10_HUMAN (human), P02778; assay: as above; conditions: remark: other sources report otherwise
[4] = target: CXCL8_HUMAN (human), P10145; assay: as above; conditions: remark: other sources report otherwise
[5] = target: CCL20_HUMAN (human), P78556; assay: as above; conditions: remark: other sources report otherwise
[6] = target: T1, CCL5_HUMAN (human), P13501; assay: as above; conditions: remark: other sources report otherwise
[7] = target: CXCL12_HUMAN (human), P48061; assay: as above; conditions: remark: other sources report otherwise
[8] = target: T3, CCL19_HUMAN (human), Q99731; assay: as above; conditions: remark: other sources report otherwise
T3 chain: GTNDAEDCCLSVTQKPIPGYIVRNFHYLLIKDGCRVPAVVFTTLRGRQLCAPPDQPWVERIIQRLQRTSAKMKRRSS

CXCL12_HUMAN (human), P48061, sequence (P48061 22-89 limits assumed): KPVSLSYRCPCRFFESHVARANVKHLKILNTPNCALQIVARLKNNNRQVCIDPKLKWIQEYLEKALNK
CXCL8_HUMAN (human), P10145, sequence (P10145 28-99 limits assumed): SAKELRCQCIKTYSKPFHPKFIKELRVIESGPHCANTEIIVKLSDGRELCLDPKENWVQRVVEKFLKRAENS
CXCL10_HUMAN (human), P02778, sequence (P02778 22-98 limits assumed): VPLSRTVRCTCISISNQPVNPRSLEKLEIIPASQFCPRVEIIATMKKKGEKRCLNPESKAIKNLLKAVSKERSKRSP
CCL20_HUMAN (human), P78556, sequence (P78556 27-96 limits assumed): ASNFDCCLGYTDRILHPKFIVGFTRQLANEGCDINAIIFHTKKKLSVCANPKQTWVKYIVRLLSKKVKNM

Binder	Kd [1]	Kd [2]	Kd [3]	Kd [4]	Kd [5]	Kd [6]	Kd [7]	Kd [8]
B1	160 nM							
B2		140 nM	104 nM	56 nM	232 nM	128 nM	71 nM	367 nM
